This is an account of results in patent US20220064329A1 (Novo Nordisk, published 2022).

B1: VH SEQ ID NO 530 / VL SEQ ID NO 398 (antibody, IgG4, V domains shown)
VH: QVQLQESGPGLVEPSQTLSLTCTVSGYSISSDSAWSWIRQPPGKGLEWIGYIQYSGSTNYNPSLKSRVTISRDTSKNQFSLKLSSVTAADTAVYYCARSVNYYGNSFAVGYWGQGTLVTVSS
VL: EIVLTQSPATLSLSPGERATLSCRASQGVSDYLAWYQQKPGEAPRLLIKYTSQPATGIPARFSGSGSGTDFTLTISSLEPEDFAVYYCQNGHSFPLTFGQGTKLEIK
notes: humanized 11F2; IgG4 S228P/kappa
B2: VH SEQ ID NO 530 / VL SEQ ID NO 422 (antibody, IgG4, V domains shown)
VH: B1 VH
VL: B1 VL with E42Q, T51A, N90Q
notes: as for B1
B3: VH SEQ ID NO 538 / VL SEQ ID NO 398 (antibody, IgG4, V domains shown)
VH: B1 VH with S30T, G45K
VL: B1 VL
notes: as for B1
B4: VH SEQ ID NO 538 / VL SEQ ID NO 382 (antibody, IgG4, V domains shown)
VH: B1 VH with S30T, G45K
VL: B1 VL with V29L, A34H, T51A
notes: as for B1
B5: VH SEQ ID NO 530 / VL SEQ ID NO 406 (antibody, IgG4, V domains shown)
VH: B1 VH
VL: B1 VL with E42Q, T51A, Q100A
notes: as for B1
B6: VH SEQ ID NO 530 / VL SEQ ID NO 430 (antibody, IgG4, V domains shown)
VH: B1 VH
VL: B1 VL with E42Q, T51A, A84G
notes: as for B1
B7: VH SEQ ID NO 530 / VL SEQ ID NO 502 (antibody, IgG4, V domains shown)
VH: B1 VH
VL: B1 VL with A34H, E42Q
notes: as for B1
B8: VH SEQ ID NO 538 / VL SEQ ID NO 374 (antibody, IgG4, V domains shown)
VH: B1 VH with S30T, G45K
VL: B1 VL with V29L, E42Q
notes: as for B1
B9: VH SEQ ID NO 530 / VL SEQ ID NO 486 (antibody, IgG4, V domains shown)
VH: B1 VH
VL: B1 VL with A34H, E42Q, T51A, A84G
notes: as for B1
B10: VH SEQ ID NO 538 / VL SEQ ID NO 366 (antibody, IgG4, V domains shown)
VH: B1 VH with S30T, G45K
VL: B1 VL with V29L, T51A
notes: as for B1
B11: VH SEQ ID NO 538 / VL SEQ ID NO 390 (antibody, IgG4, V domains shown)
VH: B1 VH with S30T, G45K
VL: B1 VL with T51A
notes: as for B1
B12: VH SEQ ID NO 530 / VL SEQ ID NO 462 (antibody, IgG4, V domains shown)
VH: B1 VH
VL: B1 VL with A34H, E42Q, T51A, Q100A
notes: as for B1
B13: VH SEQ ID NO 538 / VL SEQ ID NO 414 (antibody, IgG4, V domains shown)
VH: B1 VH with S30T, G45K
VL: B1 VL with E42Q, T51A
notes: as for B1
B14: VH SEQ ID NO 538 / VL SEQ ID NO 430 (antibody, IgG4, V domains shown)
VH: B1 VH with S30T, G45K
VL: B1 VL with E42Q, T51A, A84G
notes: as for B1
B15: VH SEQ ID NO 538 / VL SEQ ID NO 358 (antibody, IgG4, V domains shown)
VH: B1 VH with S30T, G45K
VL: B1 VL with V29I, A34H, E42Q
notes: as for B1
B16: VH SEQ ID NO 530 / VL SEQ ID NO 470 (antibody, IgG4, V domains shown)
VH: B1 VH
VL: B1 VL with A34H, E42Q, T51A
notes: as for B1
B17: VH SEQ ID NO 538 / VL SEQ ID NO 406 (antibody, IgG4, V domains shown)
VH: B1 VH with S30T, G45K
VL: B1 VL with E42Q, T51A, Q100A
notes: as for B1
B18: VH SEQ ID NO 538 / VL SEQ ID NO 310 (antibody, IgG4, V domains shown)
VH: B1 VH with S30T, G45K
VL: B1 VL with V29I, E42Q, T51A
notes: as for B1
B19: VH SEQ ID NO 538 / VL SEQ ID NO 350 (antibody, IgG4, V domains shown)
VH: B1 VH with S30T, G45K
VL: B1 VL with V29I, A34H, E42Q, Q100A, I106L
notes: as for B1
B20: VH SEQ ID NO 530 / VL SEQ ID NO 454 (antibody, IgG4, V domains shown)
VH: B1 VH
VL: B1 VL with A34H, T51A
notes: as for B1
B21: VH SEQ ID NO 538 / VL SEQ ID NO 318 (antibody, IgG4, V domains shown)
VH: B1 VH with S30T, G45K
VL: B1 VL with V29I, A34H
notes: as for B1
B22: VH SEQ ID NO 530 / VL SEQ ID NO 478 (antibody, IgG4, V domains shown)
VH: B1 VH
VL: B1 VL with A34H, E42Q, T51A, N90Q
notes: as for B1
B23: VH SEQ ID NO 538 / VL SEQ ID NO 326 (antibody, IgG4, V domains shown)
VH: B1 VH with S30T, G45K
VL: B1 VL with V29I, A34H, A84G, Q100A, I106L
notes: as for B1
B24: VH SEQ ID NO 538 / VL SEQ ID NO 446 (antibody, IgG4, V domains shown)
VH: B1 VH with S30T, G45K
VL: B1 VL with E42Q
notes: as for B1
B25: VH SEQ ID NO 538 / VL SEQ ID NO 334 (antibody, IgG4, V domains shown)
VH: B1 VH with S30T, G45K
VL: B1 VL with V29I, A34H, E42Q, T51A
notes: as for B1
B26: VH SEQ ID NO 538 / VL SEQ ID NO 438 (antibody, IgG4, V domains shown)
VH: B1 VH with S30T, G45K
VL: B1 VL with E42Q, T51A, F83V
notes: as for B1
B27: VH SEQ ID NO 538 / VL SEQ ID NO 342 (antibody, IgG4, V domains shown)
VH: B1 VH with S30T, G45K
VL: B1 VL with V29I, A34H, E42Q, T69R, Q100A, I106L
notes: as for B1
B28: VH SEQ ID NO 538 / VL SEQ ID NO 422 (antibody, IgG4, V domains shown)
VH: B1 VH with S30T, G45K
VL: B1 VL with E42Q, T51A, N90Q
notes: as for B1
B29: VH SEQ ID NO 530 / VL SEQ ID NO 446 (antibody, IgG4, V domains shown)
VH: B1 VH
VL: B1 VL with E42Q
notes: as for B1
B30: VH SEQ ID NO 530 / VL SEQ ID NO 438 (antibody, IgG4, V domains shown)
VH: B1 VH
VL: B1 VL with E42Q, T51A, F83V
notes: as for B1
B31: VH SEQ ID NO 530 / VL SEQ ID NO 414 (antibody, IgG4, V domains shown)
VH: B1 VH
VL: B1 VL with E42Q, T51A
notes: as for B1
B32: VH SEQ ID NO 530 / VL SEQ ID NO 494 (antibody, IgG4, V domains shown)
VH: B1 VH
VL: B1 VL with A34H, E42Q, T51A, F83V
notes: as for B1
B33: VH SEQ ID NO 538 / VL SEQ ID NO 454 (antibody, IgG4, V domains shown)
VH: B1 VH with S30T, G45K
VL: B1 VL with A34H, T51A
notes: as for B1

Positions count from the first letter of the chain named. In names and notes the source's numbering stands.

The assay has as its target T1, recombinant human activated Factor VII (FVIIa) (human, UniProt P08709 61-212; P08709 213-466, ten glutamate residues of the Gla domain may be gamma-carboxylated).
T1 construct: chains tethered by a disulfide bond; also called Factor VIIa; rFVIIa
T1 sequence 1: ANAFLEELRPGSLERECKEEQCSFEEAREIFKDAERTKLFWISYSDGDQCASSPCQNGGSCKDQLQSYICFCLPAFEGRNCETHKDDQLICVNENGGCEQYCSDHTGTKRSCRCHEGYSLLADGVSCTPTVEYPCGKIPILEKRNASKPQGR
T1 sequence 2: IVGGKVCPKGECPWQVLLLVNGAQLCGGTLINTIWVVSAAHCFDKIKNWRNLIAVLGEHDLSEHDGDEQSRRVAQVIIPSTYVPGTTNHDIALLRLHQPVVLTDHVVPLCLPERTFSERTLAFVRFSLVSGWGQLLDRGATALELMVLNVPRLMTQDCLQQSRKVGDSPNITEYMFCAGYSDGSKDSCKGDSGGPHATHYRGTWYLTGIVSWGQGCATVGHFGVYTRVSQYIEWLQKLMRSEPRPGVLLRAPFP
The experiment in a line: BLI (Fortebio). The procedure: All steps were performed in running buffer (20 mM HEPES buffer (pH 7.4), 150 mM NaCl, 5 mM CaCl2, 0.03% Tween 20, 1 mg/ml IgG-free BSA) at […] Antibodies were captured on anti-human tips (AHC, Fortebio) for 3 min at a concentration of 10 ug/ml. This was followed by a 3 min incubation to establish a baseline. Following this, association was monitored for 3 min using four different concentrations of VIIa (25 nm, 50 nM, 100 nM, and 200 nM), followed by a 3 mi dissociation. Sensorgrams were analysed using Fortebio data analysis software.
(BLI is a label-free optical method that tracks binding on a fibre tip over time.)
On to B1, for which the Kd was 7.1 nM.

B2: the equilibrium dissociation constant (Kd) worked out at 26 nM.

As for B3, the dissociation constant Kd came to 11 nM.

As to B4, the Kd turned out to be 1.2 nM.

For the molecule B5, the Kd was 4.3 nM.

Consider B6, for which the Kd amounted to 4.9 nM.

Consider B7, for which the Kd turned out to be 0.94 nM.

B8: the Kd is 7.4 nM.

Turning to B9, the dissociation constant (Kd) is 0.99 nM.

With B10, the Kd worked out at 6.2 nM.

Consider B11, for which the Kd is 7 nM.

Consider B12, for which the Kd is 1 nM.

With B13, the equilibrium dissociation constant (Kd) was determined as 6.9 nM.

In the case of B14, the Kd is 8.3 nM.

As to B15, the Kd was determined as 0.89 nM.

Consider B16, for which the dissociation constant (Kd) worked out at 0.96 nM.

With B17, the equilibrium dissociation constant (Kd) was 6.1 nM.

As to B18, the equilibrium dissociation constant (Kd) worked out at 2.5 nM.

In the case of B19, the Kd was 1 nM.

For the molecule B20, the Kd worked out at 1.1 nM.

Take B21: the Kd was 0.64 nM.

B22: the Kd was found to be 1.4 nM.

For the molecule B23, the Kd amounted to 0.58 nM.

As to B24, the Kd worked out at 12 nM.

In the case of B25, the Kd turned out to be 0.97 nM.

For B26, the Kd was 8.3 nM.

With B27, the Kd came to 1.2 nM.

As to B28, the dissociation constant Kd stood at 21 nM.

As to B29, the Kd turned out to be 7.9 nM.

As to B30, the Kd was 4.6 nM.

Consider B31, for which the equilibrium dissociation constant (Kd) stood at 4.5 nM.

Turning to B32, the Kd amounted to 1 nM.

For the molecule B33, the equilibrium dissociation constant (Kd) was 1.2 nM.

By Kd is commonly meant the free concentration of one partner at which half of the binding sites on the other are occupied at equilibrium, for simple one-to-one binding.
